Source: US20210252159A1, “CONJUGATES OF CARTILAGE-HOMING PEPTIDES” (priority 2018, published 2021)
Positions of bridges follow the written chain, without caps; N, C: chain ends. Residues, ends and D or L forms follow the SMILES beside them. *: point of attachment. X4 = C[C@@H]1C[C@H]2[C@@H]3CCC4=CC(=O)C=C[C@]4(C)[C@@]3(F)[C@@H](O)C[C@]2(C)[C@@]1(O)C(=O)COC(=O)[C@H]1CC[C@H](C(=O)*)CC1; X3 = C[C@@H]1C[C@H]2[C@@H]3CCC4=CC(=O)C=C[C@]4(C)[C@@]3(F)[C@@H](O)C[C@]2(C)[C@@]1(O)C(=O)COC(=O)CCCC(=O)*

Key:
[1] = Hydrolysis assay of peptide-drug conjugates in rat plasma (free drug by LC/MS); format: in vitro ADME; conditions: 37° C.
Protocol: Peptide-drug conjugate peptide(SEQ ID NO: 105)-DMA-dCIC was incubated in rat plasma at 37° C. Samples were removed at regular intervals, processed by solvent extraction, and analyzed by LC/MS to quantitate free dCIC. 11 time-points were measured between 5 min and 56 hours with 3 replicates per time point. The assay was repeated two times.
(§1) In order to determine hydrolysis rates, conjugates can be diluted in PBS, rat plasma, or human plasma and incubated at 37 degrees. Samples can be taken at designated time-points (e.g., 1, 2, 3, 5, 10, 15, 20, 25, 30, 45, 60, or 90 minutes and/or hours after administration). Internal standards such as triamcinolone acetonide (TAA) can be added as an internal standard, and then active agent/TAA can be extracted using acetonitrile, for example. The samples can be dried down, reconstituted, and analyzed by LC/MS. Data can be normalized using Dex AUC/TAA AUC. Percent hydrolysis can be calculated using the average ratio for active agent AUC/TAA AUC at a time point of maximal drug release. A general method can include using a lyophilized, purified peptide-drug conjugates reconstituted in DMSO following production to generate stock solution at 20 mg/mL. Each conjugate stock can be brought to 0.25 mg/mL in each hydrolysis condition (1×DPBS, human plasma and rat plasma) in triplicate and rocked at 37° C. To quantitate free active agent, 100 μl of the hydrolyzed conjugate solution can be transferred into 1 mL acetonitrile at 4° C. at which time all plasma proteins and intact conjugates can precipitate. This can be performed repeatedly to generate a series of time points (0 hr, 0.5 hr, 1 hr, 2 hr, 4 hr, 6 hr, 8 hr, 24 hr, 32 hr). The acetonitrile solution can be spun at 17,000 g for 5 minutes, and the supernatant removed and added to a 96 well block. The pellet can then be resuspended in 500 μl acetonitrile and re-pelleted as before. The supernatant can be removed and added to the same well in the block. Samples can be prepared for analysis by drying under a nitrogen stream followed by reconstitution in 110 μl 45:55 ACN:Citrate 10 mM pH 5.5. To ensure optimal recovery the block can be shaken via plate shaker at 7,000 rpm for 5 minutes during the reconstitution step. Prior to LC/MS the samples can be transferred to a 96 well plate and centrifuged at 6,500 g for 15 minutes. Analysis can be performed on an Agilent 1260 Infinity series HPLC with inline 6120 single quad MS using acetonitrile, water (+0.1% TFA) gradient (shown below) on an InfinityLab Poroshell SB-C18 column. Quantification of free active agent (or drug) can be achieved through integration of active agent peaks of the TIC.
(§2) Lyophilized, purified peptide-drug conjugates were reconstituted in DMSO following production to generate stock solution at 20 mg/mL. Each conjugate stock was brought to 0.25 mg/mL in each hydrolysis condition (1×DPBS, human plasma and rat plasma) in triplicate and rocked at 37° C.
(§3) To quantitate free dexamethasone (Dex), 100 μl of the hydrolyzed conjugate solution was transferred into 1 mL acetonitrile at 4° C. at which time all plasma proteins and intact conjugates precipitated. This was performed repeatedly to generate a series of time points (0 hr, 0.5 hr, 1 hr, 2 hr, 4 hr, 6 hr, 8 hr, 24 hr, 32 hr). The corticosteroid triamcinolone acetonide (25 μl, 0.1 mg/mL in 45:55 ACN:Citrate 10 mM pH 5.5) was supplemented into the acetonitrile solution as an internal standard. The acetonitrile solution was spun at 17,000 g for 5 minutes, and the supernatant removed and added to a 96 well block. The pellet was resuspended in 500 μl acetonitrile and re-pelleted as before. The supernatant was removed and added to the same well in the block.
Samples were prepared for analysis by drying under a nitrogen stream followed by reconstitution in 110 μl 45:55 ACN:Citrate 10 mM pH 5.5. To ensure optimal recovery the block was shaken via plate shaker at 7,000 rpm for 5 minutes during the reconstitution step. […]

[2] = Hydrolysis assay of peptide-drug conjugates in PBS (free Dex by LC/MS); format: physicochemical; conditions: 37° C.; for Hydrolysis half-life: in PBS, free Dex
Protocol: as §1, §2, §3
Samples were prepared for analysis by drying under a nitrogen stream followed by reconstitution in 110 μl 45:55 ACN:Citrate 10 mM pH 5.5. To ensure optimal recovery the block was shaken via plate shaker at 7,000 rpm for 5 minutes during the reconstitution step. Prior to LC/MS the samples were transferred to a 96 well plate and centrifuged at 6,500 g for 15 minutes. Analysis was performed on an Agilent 1260 Infinity series HPLC with inline 6120 single quad MS using a gradient of 0.1% TFA in acetonitrile (solvent B), and 0.1% TFA (aq) (solvent A) gradient (shown below) on an InfinityLab Poroshell SB-C18 column. […]

CIA rats = conditions: for ankle swelling over time as compared to vehicle: 0.2 mg/kg and 0.5 mg/kg Dex equivalents IV days 11 and 12; for spleen weight / thymus weight / total body weight: 0.2 mg/kg and 0.5 mg/kg dose; for change in median ankle diameter between day 11 and day 13 as compared to vehicle / difference from Dex in change in ankle diameter: 0.2 mg/kg dose; for reduction in thymus weight as compared to vehicle: 0.2 mg/kg dose groups
Protocol: Arthritis was induced in 9-week-old female Lewis rats (Envigo or Charles River Laboratories) by intradermal injection while anesthetized of 400 ug bovine type II collagen (Chondrex Inc, Redmond Wash.) in 2 adjacent 200 ul (1 mg/ml) doses on day 0. Collagen is prepared for injection by dissolving at 2 mg/ml in 0.01N glacial acetic acid in sterile water and rocking at 4° C. overnight then emulsifying in Freund's incomplete adjuvant (IFA, Sigma Aldrich). To emulsify, equal volumes of collagen solution and IFA are drawn up into separate syringes, which are joined by a 3-way stopcock. While on ice, the collagen and IFA are mixed by pressing between the two syringes rapidly for 10 minutes. Quality of the emulsification is tested after 10 minutes of mixing by dropping a small amount of mixture in water. A properly emulsified solution will remain as a discrete droplet and not disperse in the water. On day 7, rats are challenged with a second intradermal injection of 100 ug of collagen in 100 ul, 1 mg/ml, collagen in IFA solution prepared fresh. Body weight and ankle diameter measurements are recorded daily from day 7 through the end of the study. Ankle diameter was measure by a single researcher using a Fowler Digitrix 2 micrometer. Three measurements of each ankle were taken of the lateral dimension at the tarsus of lightly anesthetized rats. The reported ankle diameter measurement is the mean of the three measurements.
Arthritis was induced as described in four cohorts of 9-week-old female Lewis rats. Rats were randomly placed in treatment groups, balancing compound and dose groups across cohorts. […] Rats were dosed by tail vein injection on days 11 and 12 and euthanized on day 13 by CO2 asphyxiation. Immediately after cessation of respiratory movement, blood was collected by cardiac puncture, synovial fluid was collected from both knees, one hind limb was fixed in formalin and the alternate ankle was frozen on dry ice. Thymus, spleen, liver, and kidney weights were recorded.
CIA Response study design.
The aim of the study was to test the 4 conjugates with various linkers at two different doses in vivo in CIA rats to assess the following: ability to deliver sufficient dexamethasone to the joint to show functionality and potential therapeutic effect in the disease model.
CIA was induced in female Lewis rats (as described above, see EXAMPLE 21). Body weight and ankle joint diameters were measured on day 0 and then daily from day 7 until euthanasia. […] At euthanasia, synovial fluid was collected from both knees, one hind limb was fixed in formalin and the alternate ankle was frozen on dry ice. Thymus, spleen, liver, and kidney weights were recorded. Blood samples were submitted for CBC/Chemistry analysis, and the remaining plasma was frozen.

[3] = Hydrolysis assay of peptide-drug conjugates in human plasma (free Dex by LC/MS); format: in vitro ADME; conditions: 37° C., release of free Dex, time points to 32 hr, read-out: Half-life (hours) as measured in the hydrolysis experiments (converted)
Protocol: as §1, with “To ensure optimal recovery the block can be shaken via plate shaker at 7,000 rpm for 5 minutes during the reconstitution step. Prior to LC/MS the samples can be transferred to a 96 well plate and centrifuged at 6,500 g for 15 minutes. Analysis can be performed on an Agilent 1260 Infinity series HPLC with inline 6120 single quad MS using acetonitrile, water (+0.1% TFA) gradient (shown below) on an InfinityLab Poroshell SB-C18 column.” left out, “TIC. […]” for “TIC.”
To quantitate free dexamethasone (Dex), 100 μl of the hydrolyzed conjugate solution was transferred into 1 mL acetonitrile at 4° C. at which time all plasma proteins and intact conjugates precipitated. […]

[4] = Rat Plasma, release of free Dex, time points to 32 hr, read-out: Half-life (hours) as measured in the hydrolysis experiments (converted)
[5] = in rat plasma, free Dex, read-out: Hydrolysis half-life (converted)

Row | Structure (SMILES) | half-life at 0.25 mg/mL [1, 4] [h] | half-life at 0.25 mg/mL [1, 5] [h] | Half-life (hours) as measured in the hydrolysis experiments ([2]; PBS, release of free Dex, time points to 32 hr) | Hydrolysis half-life [2] | ankle swelling over time as compared to vehicle (CIA rats) | spleen weight (CIA rats) | thymus weight (CIA rats) | total body weight (CIA rats) | change in median ankle diameter between day 11 and day 13 as compared to vehicle (CIA rats) | difference from Dex in change in ankle diameter (CIA rats) | reduction in thymus weight as compared to vehicle (CIA rats) | half-life at 0.25 mg/mL [3] [h] | half-life at 0.25 mg/mL ([2]; PBS, release of free Dex, time points to 32 hr, read-out: Half-life (hours) as measured in the hydrolysis experiments (converted)) [h] | mortality and tolerability (CIA rats; 1 mg/kg Dex equivalents IV, some rats)
1 | CC[C@H](C)[C@@H]1NC(=O)[C@@H]2CSSC[C@H](NC(=O)[C@H](CCCNC(=N)N)NC(=O)[C@@H](NC(=O)[C@H](CC(N)=O)NC(=O)[C@@H](NC(=O)[C@@H]3CCCN3C(=O)[C@@H](NC(=O)CNC(=O)[C@H](CO)NC(=O)CNC(=O)[C@H]3CC[C@H](C(=O)OCC(=O)[C@@]4(O)[C@H](C)C[C@H]5[C@@H]6CCC7=CC(=O)C=C[C@]7(C)[C@@]6(F)[C@@H](O)C[C@@]54C)CC3)C(C)C)[C@@H](C)CC)C(C)C)C(=O)N[C@@H](CCCNC(=N)N)C(=O)NCC(=O)N[C@@H](CO)C(=O)N[C@@H](CCCNC(=N)N)C(=O)N[C@@H](CC(=O)O)C(=O)N[C@H]3CSSC[C@H](NC(=O)[C@H](CCCNC(=N)N)NC(=O)[C@H](CO)NC(=O)[C@H](CC(N)=O)NC1=O)C(=O)N[C@@H](Cc1c[nH]cn1)C(=O)N[C@H](C(=O)N[C@H](C(=O)N1CCC[C@H]1C(=O)O)[C@@H](C)O)CSSC[C@H](NC(=O)[C@@H]1CCCN1C(=O)[C@H](CC(=O)O)NC(=O)[C@H](CC(C)C)NC3=O)C(=O)N[C@@H](CCCNC(=N)N)C(=O)N[C@@H](CCCNC(=N)N)C(=O)N[C@@H](C)C(=O)NCC(=O)N[C@@H](CCSC)C(=O)N[C@@H](CCCNC(=N)N)C(=O)N[C@@H](Cc1ccccc1)C(=O)NCC(=O)N[C@@H](CCCNC(=N)N)C(=O)N2 [Compound 25, Peptide(SEQ ID NO: 105)-trans-1,4-cyclohexyl-Dex] (X4-GSGVPINVRCRGSRDCLDPCRRAGMRFGRCINSRCHCTP-OH; disulfide 10-30, 16-35, 20-37 (inferred); C-terminus assumed) | 3.4 | 3.4 | undetectable ≤32 | No Dex release ≤32 h | reduction in ankle swelling | reduction | reduction | reduction | statistically significant reduction in ankle diameter | no statistically significant difference | statistically significant | 21.3 | – | –
2 | CC[C@H](C)[C@@H]1NC(=O)[C@@H]2CSSC[C@H](NC(=O)[C@H](CCCNC(=N)N)NC(=O)[C@@H](NC(=O)[C@H](CC(N)=O)NC(=O)[C@@H](NC(=O)[C@@H]3CCCN3C(=O)[C@@H](NC(=O)CNC(=O)[C@H](CO)NC(=O)CNC(=O)CCCC(=O)OCC(=O)[C@@]3(O)[C@H](C)C[C@H]4[C@@H]5CCC6=CC(=O)C=C[C@]6(C)[C@@]5(F)[C@@H](O)C[C@@]43C)C(C)C)[C@@H](C)CC)C(C)C)C(=O)N[C@@H](CCCNC(=N)N)C(=O)NCC(=O)N[C@@H](CO)C(=O)N[C@@H](CCCNC(=N)N)C(=O)N[C@@H](CC(=O)O)C(=O)N[C@H]3CSSC[C@H](NC(=O)[C@H](CCCNC(=N)N)NC(=O)[C@H](CO)NC(=O)[C@H](CC(N)=O)NC1=O)C(=O)N[C@@H](Cc1c[nH]cn1)C(=O)N[C@H](C(=O)N[C@H](C(=O)N1CCC[C@H]1C(=O)O)[C@@H](C)O)CSSC[C@H](NC(=O)[C@@H]1CCCN1C(=O)[C@H](CC(=O)O)NC(=O)[C@H](CC(C)C)NC3=O)C(=O)N[C@@H](CCCNC(=N)N)C(=O)N[C@@H](CCCNC(=N)N)C(=O)N[C@@H](C)C(=O)NCC(=O)N[C@@H](CCSC)C(=O)N[C@@H](CCCNC(=N)N)C(=O)N[C@@H](Cc1ccccc1)C(=O)NCC(=O)N[C@@H](CCCNC(=N)N)C(=O)N2 [Compound 23, Peptide(SEQ ID NO: 105)-glutaric acid-Dex] (X3-GSGVPINVRCRGSRDCLDPCRRAGMRFGRCINSRCHCTP-OH; disulfide 10-30, 16-35, 20-37 (inferred); C-terminus assumed) | 1.9 | 1.9 | – | 6 h | reduction in ankle swelling | reduction | reduction | reduction | statistically significant reduction in ankle diameter | no statistically significant difference | statistically significant | 1.7 | 6 | died overnight
